According to PMC5428233, “Cross-beta nanostructures based on dinaphthylalanine Gd-conjugates loaded with doxorubicin” (Scientific Reports, 2017):

Experiments:
Format in all cases: physicochemical
[1] = Aggregation by 1D 1H NMR at increasing concentration; conditions: H2O/D2O 90/10 v/v
Source text: This trend was also confirmed by ^1HNMR measurements (see Figure S4). We have recently analyzed the conformational properties of DOTA-L6-F4 in aqueous solution by mono- and multi-dimensional, homo- and hetero-nuclear NMR techniques. In the present work we have used a similar approach and thus implemented 1D [^1H] and 2D [^1H, ^1H] NMR spectroscopy to study two different compounds: DOTA-L6-F2 and 2Nal2 analogue in absence and in presence of the DOTA coordinated metal ion lanthanum (III), La. We used lanthanum (III) since it gives rise to a NMR “easy to handle” diamagnetic complex. Both DOTA-L6-F2 and 2Nal2 present low aggregation propensities. […] In detail by comparing spectra recorded at 0.3 mg/mL and 5.0 mg/mL chemical shift changes appear relevant in the spectral regions between 8.0 and 8.2 ppm, where signals from HN amide protons are present and between 3.0 and 3.5 ppm where several peaks overlap (Table S1). […]
NMR experiments were acquired in the temperature range of 298–303 K on either a Varian Unity Inova 600 MHz spectrometer provided with a cold probe or a 400 MHz Varian instrument provided with a 5-mm triple resonance probe and z-axis pulsed-field gradients. […] The DOTA-L6-F2 was analyzed in the concentration range 0.3 mg/mL (i.e., 0.3 mM)–5.0 mg/mL (i.e., 4.8 mM); for the La-DOTA-L6-F2 the examined concentration range was 0.3 mg/mL (i.e., 0.3 mM)–10.0 mg/mL (i.e., 8.5 mM). […]

[2] = Water proton relaxation measurements / NMRD profiles; conditions: aqueous solution, 298 K
Source text: The paramagnetic relaxivity (r1p) of Gd (III) complexes is given by:1 r1p∝1/T1MH=Kf(τR) where K is a constant related to the strength of the dipolar interaction between the protons and the electronic magnetic moment, and τR is the correlation time associated with the reorientation of the Gd-H magnetic vector. This means that slowly moving high molecular weight systems are endowed with higher relaxivity than rapidly reorienting low molecular weight ones. In the case of self assembling Gd-containing systems, the extent of aggregation may be evaluated through the measure of the water proton longitudinal relaxation rate of its aqueous solution. In Fig. 8 are reported the NMRD (Nuclear Magnetic Resonance Dispersion) profiles of Gd-2Nal2 acquired at 21.5 MHz (0.5 T) and 298 K as a function of the complex concentration. […] At concentrations higher than 10–15 mg/mL the relaxivity assumes an almost stable value which corresponds to the system in the completely aggregated form. By analyzing the profile of the relaxivity data as a function of the applied field strength (NMRD - Nuclear Magnetic Relaxation Dispersion) it is possible to obtain an accurate determination of the reorientational correlation time (τR)[16], that is strictly related to the molecular size of the investigated system. NMRD profiles were acquired below (black circles) and above (white ones) the CAC values determined by ANS titration and ^1HNMR. […] Data were analyzed using the Solomon-Bloembergen-Morgan model, [18], considering one water molecule in the inner coordination sphere (q = 1) and fixing the exchange lifetime (τM) to a reliable value ([…]) on the basis of those previously reported for mono-amido DOTA derivatives[19]–[22]. The quantitative analysis of the NMRD profile of the aggregated form was not satisfactory when the simple inner- outer-sphere model was used, so the Lipari-Szabo approach was used for the description of the rotational dynamics. This model allows one to take into account the presence ofa certain degree of internal rotation superimposed on the overall tumbling motion, [24]. These two types ofmotion, a relatively fast local rotation of the coordination cage about the linker to the peptide scaffold superimposed on the global reorientation of the system, are characterized by different correlation times: τR ^l and τR ^g, respectively. The degree of correlation between global and local rotations is given by the parameter S^2, which takes values between 0 (completely independent motions) and 1 (entirely correlated motions).
Measure of R1 (longitudinal water proton relaxation rates) of Gd-2Nal2 were carried out on a Stelar Spinmaster spectrometer (Pavia, Italy) operating at 0.5 T which corresponds to 21.5 MHz Proton Larmor Frequency. R1 (1/T1) values were measured at 298 K by mean of the standard inversion-recovery technique. For the measure of the proton 1/T1 NMRD (Nuclear Magnetic Resonance Dispersion) profiles, a fast field-cycling Stelar relaxometer, operating over a continuum of magnetic field strengths from 0.00024 to 0.47 T (corresponding to 0.01–20 MHz proton Larmor frequencies) was used. The temperature was set at 298 K. The relaxometer is computer controlled and the absolute uncertainty is 1/T1 ± 1%. Additional data points were obtained on a Stelar Spinmaster spectrometer coupled to an electromagnet tunable at different Larmor Frequencies between 21.5 and 70 MHz. Experimental temperature control was obtained with an air-flow heater (Stelar VTC-91) endowed of a copper constantan thermocouple (uncertainty 0.1 °C). A previously reported relaxometric method[39] was used for the determination of the concentrations of the solutions used for the relaxometric characterization. The conventional Solomon-Bloembergen-Morgan theory was used for fitting of experimental data.

[3] = Self-aggregation by intrinsic naphthyl fluorescence (intensity decrease, excimer peak); conditions: water, room temperature, excitation 280 nm
Protocol: Self-organization of the peptide conjugates at the atomic level was further characterized also in solution with fluorescence, UV-Vis, ^1HNMR, CD and FTIR spectroscopies. […] From ispection of Fig. 1b, the typical emission spectrum of the 2-naphthyl group with three maxima at 325, 340 and 355 nm, respectively, can be detected.
The determination of CAC (critical aggregate concentration) values was determined as previously described[6] by the titration of the fluorescent probe ANS (8-anilino-1-naphthalene sulfonic acid ammonium salt)[28], [29] with the peptide conjugates[30].

[4] = Transmission electron microscopy of self-assembled conjugates; conditions: 5.0 mg/mL solution dried on grid, phosphotungstic acid stain
Protocol: Self-assembled peptide conjugate at 5.0 mg/mL, as free base or as metal complex, was initially characterized using TEM. […] The presence of a diffraction pattern both in SAXS and in WAXS is fingerprint of a hierarchical organization of the molecules in fibers from the atomic to the nanoscale.
TEM images were acquired by LaMest (Pozzuoli, Italy) with a FEI TECNAI G12 Spirit-Twin microscope (LaB6 source) endowed of a bottom mounted FEI Eagle-4k CCD camera (Eindhoven, The Netherlands), working at 120 kV.

## DOTA-L6-F2 [reference compound]
[1]; 298-303 K
  concentration at which aggregation appears in 1H NMR spectra (spectral changes / line broadening): higher than 1.2 mg/mL

## Gd-DOTA-L6-F2 [reference compound]
[2]; complex at 1 mg/mL
  r1p (longitudinal proton relaxivity): 5.7 mM⁻¹ s⁻¹
[2]; complex at 25 mg/mL (nanoaggregates), text: at 20 MHz
  r1p (longitudinal proton relaxivity): 6.0 mM⁻¹ s⁻¹

## DOTA-L6-(2Nal)2 [2Nal2]
[3]
  concentration of appearance of the excimer peak (380-430 nm) / formation of stable aggregates: above 2.0 mg/mL
[3]; 0.025-20.0 mg/mL range
  concentration at which self-aggregation begins (decrease of fluorescence intensity): 200 to 500 µg/mL
[1]; 2Nal2 0.1-5.0 mg/mL, La-DOTA-L6-F2 0.3-10.0 mg/mL
  aggregation propensity by 1H NMR (in words): cannot reveal significant aggregation
[4]
  supramolecular aggregation / morphology in TEM images: long fibrillary nanostructures
